Results reported in PMC8224240 (Molecular cell, 2020).

Biological target: T1, human Smc6 with Strep-tag II (StreptagII-Smc6) (human, UniProt Q96SB8 1-1091)
T1 sequence (looked up): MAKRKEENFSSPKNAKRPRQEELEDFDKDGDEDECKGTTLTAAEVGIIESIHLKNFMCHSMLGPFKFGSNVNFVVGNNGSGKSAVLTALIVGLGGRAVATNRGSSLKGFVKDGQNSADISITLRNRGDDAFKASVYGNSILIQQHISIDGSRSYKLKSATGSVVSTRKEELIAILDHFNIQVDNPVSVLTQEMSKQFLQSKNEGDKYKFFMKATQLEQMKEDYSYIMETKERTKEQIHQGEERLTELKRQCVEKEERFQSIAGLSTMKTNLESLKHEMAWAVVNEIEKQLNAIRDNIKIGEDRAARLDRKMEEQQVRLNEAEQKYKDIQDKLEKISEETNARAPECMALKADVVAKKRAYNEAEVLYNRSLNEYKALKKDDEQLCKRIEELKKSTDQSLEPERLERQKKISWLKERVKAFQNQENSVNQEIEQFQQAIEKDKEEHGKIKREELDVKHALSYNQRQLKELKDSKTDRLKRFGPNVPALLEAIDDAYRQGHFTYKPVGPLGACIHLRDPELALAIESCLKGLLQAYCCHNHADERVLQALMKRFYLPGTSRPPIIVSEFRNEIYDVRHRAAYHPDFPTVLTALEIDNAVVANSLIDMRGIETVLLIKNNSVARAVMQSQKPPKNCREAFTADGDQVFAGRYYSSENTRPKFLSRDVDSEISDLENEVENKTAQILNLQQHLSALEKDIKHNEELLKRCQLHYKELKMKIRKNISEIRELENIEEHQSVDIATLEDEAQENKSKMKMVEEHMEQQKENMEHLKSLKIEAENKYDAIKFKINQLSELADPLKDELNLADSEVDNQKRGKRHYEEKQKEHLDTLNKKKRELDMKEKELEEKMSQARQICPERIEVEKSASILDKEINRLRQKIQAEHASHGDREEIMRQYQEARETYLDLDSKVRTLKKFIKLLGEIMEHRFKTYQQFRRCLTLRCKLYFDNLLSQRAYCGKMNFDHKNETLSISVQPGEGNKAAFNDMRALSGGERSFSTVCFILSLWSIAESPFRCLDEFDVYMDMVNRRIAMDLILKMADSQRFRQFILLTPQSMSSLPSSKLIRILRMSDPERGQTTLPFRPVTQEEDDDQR
Assay: tandem affinity co-purification

B1: human Smc5 with poly-histidine tag (His-Smc5), subunit of the Smc5/6 dimer (natural protein, UniProt Q8IY18 1-1101, looked up)
chain: MATPSKKTSTPSPQPSKRALPRDPSSEVPSKRKNSAPQLPLLQSSGPFVEGSIVRISMENFLTYDICEVSPGPHLNMIVGANGTGKSSIVCAICLGLAGKPAFMGRADKVGFFVKRGCSRGMVEIELFRASGNLVITREIDVAKNQSFWFINKKSTTQKIVEEKVAALNIQVGNLCQFLPQDKVGEFAKLSKIELLEATEKSIGPPEMHKYHCELKNLREKEKQLETSCKEKTEYLQKMVQRNERYKQDVERFYERKRHLDLIEMLEAKRPWVEYENVRQEYEEVKLVRDRVKEEVRKLKEGQIPVTCRIEEMENERHNLEARIKEKATDIKEASQKCKQKQDVIERKDKHIEELQQALIVKQNEELDRQRRIGNTRKMIEDLQNELKTTENCENLQPQIDAITNDLRRIQDEKALCEGEIIDKRRERETLEKEKKSVDDHIVRFDNLMNQKEDKLRQRFRDTYDAVLWLRNNRDKFKQRVCEPIMLTINMKDNKNAKYIENHIPSNDLRAFVFESQEDMEVFLKEVRDNKKLRVNAVIAPKSSYADKAPSRSLNELKQYGFFSYLRELFDAPDPVMSYLCCQYHIHEVPVGTEKTRERIERVIQETRLKQIYTAEEKYVVKTSFYSNKVISSNTSLKVAQFLTVTVDLEQRRHLEEQLKEIHRKLQAVDSGLIALRETSKHLEHKDNELRQKKKELLERKTKKRQLEQKISSKLGSLKLMEQDTCNLEEEERKASTKIKEINVQKAKLVTELTNLIKICTSLHIQKVDLILQNTTVISEKNKLESDYMAASSQLRLTEQHFIELDENRQRLLQKCKELMKRARQVCNLGAEQTLPQEYQTQVPTIPNGHNSSLPMVFQDLPNTLDEIDALLTEERSRASCFTGLNPTIVQEYTKREEEIEQLTEELKGKKVELDQYRENISQVKERWLNPLKELVEKINEKFSNFFSSMQCAGEVDLHTENEEDYDKYGIRIRVKFRSSTQLHELTPHHQSGGERSVSTMLYLMALQELNRCPFRVVDEINQGMDPINERRVFEMVVNTACKENTSQYFFITPKLLQNLPYSEKMTVLFVYNGPHMLEPNTWNLKAFQRRRRRITFTQPS
stoichiometry N: 1
